From publication PMC4791427, “Structural dynamics of the yeast Shwachman-Diamond syndrome protein (Sdo1) on the ribosome and its implication in the 60S subunit maturation” (Protein & Cell, 2016)
One block for each molecule: values may come before it.

T1: Sdo1p, full-length (1-250) (S. cerevisiae, UniProt Q07953 1-250)
T1 construct: Sdo1p, the SBDS homologue of S. cerevisiae, full-length construct, residues 1-250; cloned into pET21b; also called Sdo1p-FL; FL; source: E. coli BL21 (DE3), purified (Ni-NTA, gel filtration); not shown: His6, C-terminal, kept
T1 sequence (looked up): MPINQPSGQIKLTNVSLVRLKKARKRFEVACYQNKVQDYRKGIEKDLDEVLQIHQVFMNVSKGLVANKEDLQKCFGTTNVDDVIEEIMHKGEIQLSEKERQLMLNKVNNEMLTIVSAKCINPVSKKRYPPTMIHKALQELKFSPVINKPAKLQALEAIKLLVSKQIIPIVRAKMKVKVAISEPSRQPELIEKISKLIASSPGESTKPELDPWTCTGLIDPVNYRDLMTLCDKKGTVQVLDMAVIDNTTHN

B1: Sdo1p domain I-II (1-169) (domain or fragment, S. cerevisiae, UniProt Q07953 1-169, looked up)
chain: MPINQPSGQIKLTNVSLVRLKKARKRFEVACYQNKVQDYRKGIEKDLDEVLQIHQVFMNVSKGLVANKEDLQKCFGTTNVDDVIEEIMHKGEIQLSEKERQLMLNKVNNEMLTIVSAKCINPVSKKRYPPTMIHKALQELKFSPVINKPAKLQALEAIKLLVSKQIIPI
notes: Sdo1p of S. cerevisiae, domains I-II, residues 1-169; cloned into pET21b; also called domains I-II; Sdo1p-I-II; source: E. coli BL21 (DE3), purified (Ni-NTA, gel filtration); not shown: His6, C-terminal, kept
B2: Sdo1p, full-length (1-250) (natural protein)
chain: T1 sequence (looked up)
B3: uL16 (RPL10), in the 60S subunit (natural protein, S. cerevisiae (endogenous in S288C), UniProt P41805 1-221, looked up)
chain: MARRPARCYRYQKNKPYPKSRYNRAVPDSKIRIYDLGKKKATVDEFPLCVHLVSNELEQLSSEALEAARICANKYMTTVSGRDAFHLRVRVHPFHVLRINKMLSCAGADRLQQGMRGAWGKPHGLAARVDIGQIIFSVRTKDSNKDVVVEGLRRARYKFPGQQKIILSKKWGFTNLDRPEYLKKREAGEVKDDGAFVKFLSKKGSLENNIREFPEYFAAQA
notes: ribosomal protein uL16 (RPL10) of S. cerevisiae; met Sdo1p as a subunit of the purified 60S particle, not as an isolated protein; source: endogenous, part of the 60S subunit purified from S. cerevisiae S288C

Columns and labels:
[1] = target: T1, Sdo1p, full-length (1-250); test: BLI; Octet RED96; Sdo1p variants (2 μg/mL) immobilised on Anti-Penta-HIS biosensors; 60S subunit 1.75-48 nmol/L in 25 mmol/L Hepes-KOH pH 7.5, 100 mmol/L KCl, 2.5 mmol/L MgCl2; association and dissociation 240 s each
[2] = target: Sdo1p domain I-II (1-169) (S. cerevisiae) (UniProt Q07953); test: as above
[3] = target: The truncated domain I, II and II-III; test: as above
[4] = target: B3; test: cross-linking; CX-MS: 50 pmol 60S with full-length or truncated Sdo1p at 1:20, 25 mmol/L Hepes-KOH pH 7.5, 100 mmol/L KCl, 2.5 mmol/L MgCl2; DSS or BS3, room temperature 1 h; trypsin, LC-MS/MS, pLink FDR <5%; settings: both partners purified
[5] = target: mature 60S ribosomal subunit of S. cerevisiae (S. cerevisiae (endogenous in S288C)) (UniProt P41805); test: cryo-EM structure; 60S subunit (100 nmol/L) with 20-fold (dimers, 14 Å map) or 10-fold (monomers, 9 Å map) excess of full-length Sdo1p, 30°C 15 min, without crosslinking
[6] = target: T1, Sdo1p, full-length (1-250); test: cross-linking; CX-MS: 50 pmol 60S with full-length or truncated Sdo1p at 1:20, 25 mmol/L Hepes-KOH pH 7.5, 100 mmol/L KCl, 2.5 mmol/L MgCl2; DSS or BS3, room temperature 1 h; trypsin, LC-MS/MS, pLink FDR <5%; settings: both partners purified

Kd [1]: 18 nM | Kd [2]: 15 nM | Kd [3]: 25 to 40 nM
Molecule: mature 60S ribosomal subunit of S. cerevisiae (from UniProt P41805 1-221) (complex)

Molecule: B1
binding result [4]: binds

Molecule: B2
stoichiometry N [5]: 1

Molecule: B3
binding result [6]: binds
